According to the supplement of paper PMC10126150:
± gives the standard deviation of the averaged measurements.

Test system: ATP
Test: switch fluorescence ratio, 500 uM ATP over buffer (Cy3 cluster intensity, sum of 5 cycles each) (fold (ratio)); higher = stronger signal-on switching upon ATP binding; sequences stand for … in TCGTCGGCAGCGTCAGATGTGTATAAGAGACAGTTTTTTTTTTTTTTTTTTTTTTTTT…TC
Conditions: aptamer strand: ATP DNA aptamer (quencher-CACCTGGGGGAGTATTGCGGAGGAAGG + anchor), 100 nM annealed; ATP concentration: 500 uM
In short: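 Cy3-labelled switching-strand clusters on a modified Illumina MiSeq flow-cell were annealed to 100 nM quencher-labelled ATP aptamer and imaged first in selection buffer, then after 15 min with 500 uM ATP at 22 °C. NaOH stripping and re-annealing separated each of five buffer/ATP cycles, and clusters outside 100-1000 RFU were excluded. The fluorescence ratio sums target-cycle Cy3 intensity over buffer-cycle Cy3 intensity per cluster and averages it per switch-domain sequence.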
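Further: ATP exposure 15 min at 22 °C before imaging.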

Sequence | switch fluorescence ratio
TCGGAGCGGG | 1.102 ± 0.0032
TATGGGAGTT | 1 ± 0.01
AATGGAAGGG | 1.01 ± 0.013
TGCGGGACT | 2.28 ± 1.8
TTATGTAATC | 1.19 ± 0.25
TTCTTCGACA | 1.08 ± 0.034
TTGTTATCGG | 1.04 ± 0.04
CGCGTGATTT | 1.06 ± 0.058
GGGGTGTAGG | 0.993 ± 0.024
TCATAGTTGT | 1.01 ± 0.051
TTTGCGTTTC | 1.07 ± 0.039
TGGGGCTCTT | 1 ± 0.013
GGCACTAAGT | 1.04 ± 0.036
TTTTGGCCTA | 1.01 ± 0.029
CTATAACAAT | 1.02 ± 0.021
CGAGGTGGGA | 0.9972 ± 0.0025
GTGATTGGGG | 0.97 ± 0.028
AAGAGGGTTC | 1.02 ± 0.081
GGGAGGGGCA | 0.971 ± 0.012
CCATTGGGTA | 1.01 ± 0.036
TATGCTAAAA | 0.965 ± 0.038
CCAAAATTGG | 1.018 ± 0.0052
ATTTGGCGGT | 0.997 ± 0.025

Sequence | switch fluorescence ratio
AGGTAATACG | 1.098 ± 0.0067
ATGTCATGGG | 0.998 ± 0.032
AGCTTGAAG | 0.999 ± 0.019
TTAGAGGTCT | 0.978 ± 0.011
ACACATCATA | 1.07 ± 0.032
ATGCCATGTG | 1 ± 0.022
CGGTAATATC | 1.915 ± 0.016
TTAAGGTGAG | 1.02 ± 0.021
AGAGGGCTAT | 0.989 ± 0.038
AGTTGAAATA | 0.9816 ± 0.0066
TTCACGGGTT | 1.01 ± 0.021
TATAGGGGCT | 0.9805 ± 0.0098
CCCGGAGTGT | 1.732 ± 0.0079
GGGTATCTAT | 1.012 ± 0.0067
GCCGACAAGC | 1.05 ± 0.083
TCGAGCTAAT | 1.41 ± 0.11
GAGTTGAGTT | 1.01 ± 0.074
CGGGATAGGG | 0.977 ± 0.026
GTGGAGACGG | 0.988 ± 0.034
GGACTCCCAT | 1.23 ± 0.074
AGGATGGTAA | 1 ± 0.02
TCATAGTTGG | 0.979 ± 0.025
CTGCCCGGCG | 1.03 ± 0.027

Sequence | switch fluorescence ratio
AGCTGTCGCT | 1.01 ± 0.076
GAGGCGTCAA | 0.997 ± 0.027
AGGCTTTGGG | 0.978 ± 0.0099
CGCCTAACGA | 1.08 ± 0.024
ACTGTTATGT | 1.07 ± 0.022
GTTTTTGGAG | 0.98219 ± 0.00097
CTGATAACAT | 1.02 ± 0.018
TTTGGGTCTT | 1.02 ± 0.013
GATGAAAAAA | 1.02 ± 0.037
CTGGTTACAC | 1.03 ± 0.033
TTAATAATGG | 0.979 ± 0.026
ACGGCTACGG | 1.02 ± 0.018
TAGAGTTATT | 1.01 ± 0.014
GGGGCAAGGG | 1.28 ± 0.28
GGCGGCGTCT | 0.998 ± 0.036
TCTAGCCCTG | 1.06 ± 0.073
GGGGTGGAGT | 0.971 ± 0.019
ACGAGACGAC | 1.06 ± 0.023
GGAGGCCAGC | 1.05 ± 0.075
TCCTAGGCGC | 1.126 ± 0.0049
CAATTTAGCG | 1.02 ± 0.032
AATAGAGTGG | 0.99 ± 0.024
AGGTGCTCTT | 1 ± 0.053

Sequence | switch fluorescence ratio
CGAGCATGTA | 1.168 ± 0.0052
GGCTGCAGCT | 0.992 ± 0.016
ATAGCGGACA | 0.967 ± 0.033
TTGCGCGCTA | 0.98 ± 0.054
TTTAGTCGTA | 1.01 ± 0.021
CCCTTGTACG | 1.03 ± 0.036
TGCGTTATAA | 1.02 ± 0.022
CTCAATTCTG | 0.969 ± 0.031
TTGGGCAGTT | 0.98 ± 0.051
GGGAAACGAG | 1.04 ± 0.019
TGATTCGAGC | 1.003 ± 0.0058
TTACTATGAA | 1.039 ± 0.0071
ACTGAGTTGT | 1.04 ± 0.038
CAGGGATTTG | 0.9599 ± 0.0044
TATACGATTG | 0.985 ± 0.013
TATGGGTGCT | 1.06 ± 0.046
TCATGGGAAG | 1.02 ± 0.077
CTGTATATTT | 0.9593 ± 0.0055
GTCGAAGCCC | 1.03 ± 0.022
TATAACGGAT | 1.01 ± 0.025
ATGGCTGTGG | 0.9852 ± 0.0085
CGTTATACGG | 1.043 ± 0.0037
GATTTACGAT | 1.026 ± 0.0019

Sequence | switch fluorescence ratio
TTAGAGACAG | 0.985 ± 0.049
GGGTTGAGGA | 1.01 ± 0.05
ACCTTAATTA | 1.1 ± 0.044
GGGGGAGTGT | 0.985 ± 0.026
TCGTAAAGGG | 1.01 ± 0.022
TACGGGGGCG | 1.01 ± 0.1
TACACGTTTT | 1.03 ± 0.021
TTATGTGCGA | 1.02 ± 0.013
TAAGAATGTT | 0.977 ± 0.0098
GGCCGATTGT | 0.962 ± 0.024
CCGCTAGTGG | 1.196 ± 0.0036
GACAGGGGGA | 1.035 ± 0.0072
CGTTAGGGGG | 1.02 ± 0.041
AATGTGTTGT | 0.998 ± 0.011
GGGGGCAGGC | 0.964 ± 0.053
GTATTAGCTG | 0.974 ± 0.0089
AGAATTGCGG | 0.98 ± 0.044
GGGGAAGGAT | 1.05 ± 0.13
ATGAAGCAGG | 1.15 ± 0.058
TACAATTTCG | 1.01 ± 0.032
CATGACGGTT | 0.978 ± 0.046
AAGTTGGTCT | 1.02 ± 0.018
TTCATGCCTG | 1.12 ± 0.092

Sequence | switch fluorescence ratio
ATGGATGCGT | 0.967 ± 0.015
TGGGTTACCT | 1.05 ± 0.01
TTTAAAAGGC | 1.01 ± 0.028
GTTTTAATGG | 1.01 ± 0.025
GCTAGTAAGT | 0.9819 ± 0.0063
TTAATTTGGA | 1.014 ± 0.0088
CAGTGTAGGG | 1.017 ± 0.01
AAAGTGGTCG | 1.1 ± 0.039
TCCGTCTGTT | 1.003 ± 0.0052
TGCATGTCTC | 1.43 ± 0.46
GAACGCCGGC | 0.939 ± 0.034
GTTATATTTT | 1.01 ± 0.032
GAGGGCTTTG | 1 ± 0.031
AGGAATACTT | 1.07 ± 0.043
GTTTTTACGG | 1.04 ± 0.0059
TTATCATTTA | 1.01 ± 0.03
TTCTAAAGGT | 1.02 ± 0.04
ATGTAGTTCG | 0.981 ± 0.03
TGGACTAGAA | 0.983 ± 0.042
GTAGGTTTGA | 0.994 ± 0.012
AATTTTATAC | 1.02 ± 0.016
AAGCGCCTTT | 0.985 ± 0.02
CAAGTAAGTT | 0.9884 ± 0.0063

Sequence | switch fluorescence ratio
TTAAGCAATT | 1.36 ± 0.047
GGTGCTTTTG | 0.9888 ± 0.0085
TGCAGGGGTT | 1.05 ± 0.02
CGCCGGACAT | 1.04 ± 0.0027
ACAGTGTGTC | 0.994 ± 0.042
AAAAATGTTA | 1.01 ± 0.018
TTAAAGGATT | 1.01 ± 0.052
CAAGGTCCGA | 0.99445 ± 0.00086
TTGGTCTATG | 0.986 ± 0.027
AGAAGGGTGT | 1.02 ± 0.017
CCGTTTTAGC | 1.12 ± 0.12
GGGAATTAAG | 0.989 ± 0.032
ACGAAGTTTT | 1.02 ± 0.0028
TTCCGAGTTT | 1.15 ± 0.19
CCATATTTTT | 0.985 ± 0.015
GACATAGACC | 1.048 ± 0.0075
AATAATTGTG | 1.02 ± 0.028
TCAGGGGTTC | 0.9918 ± 0.0084
AGTCGTACGG | 1.004 ± 0.0096
